To fix the notation:
B1: SC06-049 (scFv)
scFv: QVQLVQSGAEVKKPGESLKISCKGSGYSFTSYWIGWVRQMPGKGLEWMGIIYPGDSDTRYSPSFQGQVTISADKSIGTAYLQWSSLKASDTAMYYCARLFRVRGGHFDSWGQGTLVTVSSGTGGSGGTGSGTGGSTQSALTQPASVSGSPGQSITISCTGTNSDVGGYNYVSWYQQHPGKAPKLLIYDVTNRPSGVSNRFSASKSGNTASLTISGLQAEDEADYYCSSFTSSSTRVFGGGTKLTVL
notes: single-chain phage antibody: the scFv stood on phage in the ELISA
B2: SC06-050 (scFv)
scFv: EVQLVESGPEVKKPGASVKVSCEASGYNLDNYGITWVRQAPGQGLEWLGWISAYNAKTEYGQRLQGRVTMTTDTATSTAYLELRSLRSDDTAVYYCARVLGYRGGWYDEGDAFDVWGQGTMVTVSSGTGGSGGTGSGTGGSTDIQLTQSPSFLSASVGDRVTITCRASQGIRSHLAWYQQKAGKAPKLLIYAASTLQSGVPSRFSGSGSGTEFTLTISSLQPDDFAAYYCQQLNTYPITFGQGTRLEIK
notes: single-chain phage antibody: the scFv stood on phage in the ELISA; also called SC05-050
B3: SC06-429 (scFv)
scFv: QVQLVQSGAEVKNPGESLKISCKGSGYTFTSYWIGWVRQMPGKGLEWMGSIYPGDSDTRYSPSFQGQVTISVDKSISTAYLQWSSLKASDTAMYYCARQYRAGSTTRFDPWGQGTLVTVSSGTGGSGGTGSGTGGSTDVVMTQSPLSLPVTPGEPASISCRSSQSLRHRNGNNYLDWYLQKPGQSPQLLIYLGSNRASGVPDRFSGSGSGTDFTLKISRVEAEDVGIYYCMQALQTPLTFGGGTKVEIK
notes: as for B1
B4: SC06-016 (scFv)
scFv: QVQLVQSGPEVKKPGASVTVSCKASGYSFSSYGISWVRQAPGQGLEWMGRIIPVGGNTLYSQMFQGRVTMTSDTSTSTVYLELSSLRSEDTAVYFCARDGGRWQFDYWGQGTLVTVSSGTGGSGGTGSGTGGSTDIQLTQSPSSVSASVGDRVTITCRASQGISNWLAWYQQKPGKAPELLIYAASSLQSGVPPRFSGSASGTDFTLTISSLQPEDFATYYCQQSKNFPYTFGQGTKVEIK
notes: as for B1
B5: SC06-432 (scFv)
scFv: QLQLQESGPGLVKPSQTLSLTCTVSGGSISSGGYYWSWIRQHPGKGLEWIGYIYYSGSTYYNPSLKSRVTISVDTSKNQFSLKLSSVTAADTAVYYCARERILDRMNDYWGQGTLVTVSSGTGGSGGTGSGTGGSTQSVVTQPPSVSGAPGQRVTISCTGSSSNIGAGYDVHWYQQLPGTAPKLLIYGNSNRPSGVPDRFSGSKSGTSASLAITGLQAEDEADYYCQSSDSSLNILFGGGTKLTVL
notes: as for B1
B6: SC05-179 (scFv)
scFv: EVQLVESGGGLVKPGGSLGLSCAASGFFFSDYSMSWIRQAPGKGLEWLSNISGSGHSTKYAESMRGRITISRDNAKKSLSLQLNSLRAEDTAVYFCVRGGGYRMDVWGQGTTVTVSSGTGGSGGTGSGTGGSTQSALTQPRSVPGSPGQSVTISCTGTSSDVGGYNYVSWYQQHPGKAPKLMIYDVSKRPSGVPDRFSGSKSGNTASLTVSGLQAEDEADYYCSSYAGSNNFVVFGGGTKLTVL
notes: as for B1
B7: SC05-187 (scFv)
scFv: EVQLVQSGAEVKKPGESLKISCKGSGYSFTKYWIGWVRQMPGKGLEWMGIIYPGDSDTRYSPSFQGQVTISADKSISTAYLQWSSLKASDTAMYYCARGSGIATGNSFDSWGQGTLVTVSSGTGGSGGTGSGTGGSTQTVVTQEPSLTVSPGGTVTLTCASSTGAVTSGYYPNWFQQKPGQAPRALIYSTSKKHSWTPARFSGSLLGGRAALTLSGAQPEDEADYYCLLSYGGARVFGGGTKLTVL
notes: as for B1
B8: SC06-043 (scFv)
scFv: EVQLVESGAEVKKPGESLKISCKGSGYSFTSYWIGWVRQMPGKGLEWMGIIYPGDSDTRYSPSFQGQVTISADKSISTAYLQWSSLKASDTAMYYCARRYCSGGTCSDGFDIWGQGTMVTVSSGTGGSGGTGSGTGGSTQSALTQPPSASGSPGQSVTISCTGTSSDVGGYNYVSWYQQHPGKAPKLMIYEVSKRPSGVPDRFSGSKSGNTASLTVSGLQAEDEADYYCSSYAGSNNLVFGGGTKLTVL
notes: as for B1

The source of these data is KR20160003317A (dated 2016).

T1 sequence (P02769 25-607 limits assumed): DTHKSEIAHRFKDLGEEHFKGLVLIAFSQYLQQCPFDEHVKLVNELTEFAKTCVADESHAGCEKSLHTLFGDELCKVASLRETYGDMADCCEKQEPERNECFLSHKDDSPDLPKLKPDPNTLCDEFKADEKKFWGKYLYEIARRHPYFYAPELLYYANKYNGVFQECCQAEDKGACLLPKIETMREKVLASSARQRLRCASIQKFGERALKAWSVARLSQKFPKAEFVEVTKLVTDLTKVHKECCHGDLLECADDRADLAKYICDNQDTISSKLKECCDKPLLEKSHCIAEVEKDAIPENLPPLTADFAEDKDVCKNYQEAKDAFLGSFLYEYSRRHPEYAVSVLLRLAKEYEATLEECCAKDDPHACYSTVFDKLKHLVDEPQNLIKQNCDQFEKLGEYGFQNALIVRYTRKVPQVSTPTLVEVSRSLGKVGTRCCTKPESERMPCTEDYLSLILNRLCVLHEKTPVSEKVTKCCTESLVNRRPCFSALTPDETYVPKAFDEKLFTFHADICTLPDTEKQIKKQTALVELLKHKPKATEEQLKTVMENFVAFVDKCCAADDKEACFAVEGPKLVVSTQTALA

This assay concerns the target T1, 송아지 혈청 알부민(BSA) (bovine (printed: 송아지 혈청 알부민), UniProt P02769 25-607).
T1 construct: also called bovine serum albumin
Put plainly: phage ELISA, 1% BSA coated, anti-M13-peroxidase, absorbance 492 nm. Background: ELISA stands for enzyme-linked immunosorbent assay.
For B1, the binding result was “no binding”. With B2 the entry was “no binding”. Consider B3, for which the binding result is given as “no binding”. For B4, the binding result is “no binding”. With B5 the entry was “no binding”; with B6, “no binding”. For B7, the binding result was “no binding”. With B8 the entry was “no binding”.
